According to patent publication US7462599B2, “Use of effectors of glutaminyl and glutamate cyclases” (Probiodrug AG, priority 2003, dated 2008):

Target: QC (Homo sapiens, UniProt Q16769)
Experiment: LC/MS analysis of QC-catalyzed pyroglutamate formation
Assay type: biochemical

Chain of QC (Q16769 29-361): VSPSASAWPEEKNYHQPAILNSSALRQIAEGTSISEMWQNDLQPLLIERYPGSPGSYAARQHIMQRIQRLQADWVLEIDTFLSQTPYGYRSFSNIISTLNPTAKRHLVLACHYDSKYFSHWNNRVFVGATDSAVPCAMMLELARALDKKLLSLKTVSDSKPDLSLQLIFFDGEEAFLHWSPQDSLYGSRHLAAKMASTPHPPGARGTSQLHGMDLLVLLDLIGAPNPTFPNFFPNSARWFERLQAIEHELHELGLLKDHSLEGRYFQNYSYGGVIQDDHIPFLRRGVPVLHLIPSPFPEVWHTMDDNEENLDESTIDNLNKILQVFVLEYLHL

formation of N-terminal pyroglutamate catalyzed by QC: is catalyzed by QC
B1: MCP-2 isoforms: Human Monocyte Chemotactic Protein 2 (MCP-2) isoforms, 76 residue chemokine (protein, UniProt P80075 24-99, looked up)
C-C motif chemokine 8: QPDSVSIPITCCFNVINRKIPIQRLESYTRITNIQCPKEAVIFKTKRGKEVCADPKERWVRDSMKHLDQIFQNLKP
